# Measurements from the supplement of paper PMC9112550, “Optimization of the antimicrobial peptide Bac7 by deep mutational scanning” (BMC Biology, 2022).
# Test system: Escherichia coli TOP10
# Assay: shrunken log2 fold change of peptide-encoding DNA abundance (4.5 h post-induction vs induction); higher = less antimicrobial activity (less host growth inhibition)
# Conditions: time post-induction: 4.5 h; library: site-saturation at positions 5, 18, 19, 20
# 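Further: peptides expressed intracellularly from a pBAD plasmid library in pooled LB shake-flask culture, induced with 0.3% L-arabinose, DNA abundance read by NGS, three biological replicates, DESeq2 with apeglm shrinkage.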
row,Sequence,shrunken log2 fold change
1,RRIRHRPPRLPRPRPRPIICPRP,-0.168
2,RRIRMRPPRLPRPRPRPMNPPRP,0.12
3,RRIRARPPRLPRPRPRPRMMPRP,0.229
4,RRIRARPPRLPRPRPRPEIIPRP,0.396
5,RRIRIRPPRLPRPRPRPYDDPRP,-0.0134
6,RRIRYRPPRLPRPRPRPNAEPRP,-0.122
7,RRIRDRPPRLPRPRPRPEIMPRP,0.245
8,RRIRTRPPRLPRPRPRPMWNPRP,-0.418
9,RRIRYRPPRLPRPRPRPVVNPRP,-0.683
10,RRIRERPPRLPRPRPRPRHPPRP,-0.289
11,RRIRHRPPRLPRPRPRPMDFPRP,3.65
12,RRIRERPPRLPRPRPRPNNPPRP,-0.736
13,RRIRHRPPRLPRPRPRPIARPRP,0.116
14,RRIRSRPPRLPRPRPRPRCLPRP,0.0297
15,RRIRKRPPRLPRPRPRPYFMPRP,-0.501
16,RRIRCRPPRLPRPRPRPECLPRP,-0.109
17,RRIRDRPPRLPRPRPRPPYGPRP,-0.0609
18,RRIRKRPPRLPRPRPRPCEKPRP,0.492
19,RRIRHRPPRLPRPRPRPPDIPRP,-0.0817
20,RRIRHRPPRLPRPRPRPAEGPRP,-0.00235
21,RRIRMRPPRLPRPRPRPISCPRP,-0.0229
22,RRIRWRPPRLPRPRPRPIWTPRP,0.107
23,RRIRTRPPRLPRPRPRPPTMPRP,-0.0279
24,RRIRVRPPRLPRPRPRPEVNPRP,-0.0796
25,RRIRMRPPRLPRPRPRPNVRPRP,0.0272

row,Sequence,shrunken log2 fold change
1,RRIRVRPPRLPRPRPRPRGTPRP,-0.164
2,RRIRDRPPRLPRPRPRPEFTPRP,0.174
3,RRIRKRPPRLPRPRPRPMFIPRP,-0.0367
4,RRIRGRPPRLPRPRPRPDIMPRP,0.0438
5,RRIRERPPRLPRPRPRPTTVPRP,-0.147
6,RRIRSRPPRLPRPRPRPQSDPRP,-0.0499
7,RRIRKRPPRLPRPRPRPRNNPRP,0.198
8,RRIRGRPPRLPRPRPRPELGPRP,1.45
9,RRIRERPPRLPRPRPRPVRQPRP,0.412
10,RRIRERPPRLPRPRPRPLADPRP,-0.14
11,RRIRGRPPRLPRPRPRPWQEPRP,-0.0457
12,RRIRMRPPRLPRPRPRPFRGPRP,-0.205
13,RRIRVRPPRLPRPRPRPYTTPRP,-0.721
14,RRIRWRPPRLPRPRPRPSWRPRP,0.0809
15,RRIRLRPPRLPRPRPRPLCIPRP,-0.569
16,RRIRRRPPRLPRPRPRPLNDPRP,0.0468
17,RRIRCRPPRLPRPRPRPTSMPRP,-0.308
18,RRIRKRPPRLPRPRPRPTWIPRP,0.00938
19,RRIRFRPPRLPRPRPRPNRRPRP,0.048
20,RRIRWRPPRLPRPRPRPWDCPRP,-0.0326
21,RRIRARPPRLPRPRPRPQNQPRP,-0.141
22,RRIRPRPPRLPRPRPRPWYVPRP,-0.369
23,RRIRERPPRLPRPRPRPVAKPRP,0.197
24,RRIRFRPPRLPRPRPRPNHKPRP,-0.405
25,RRIRSRPPRLPRPRPRPRDEPRP,0.242

row,Sequence,shrunken log2 fold change
1,RRIRMRPPRLPRPRPRPSFCPRP,-0.0778
2,RRIRKRPPRLPRPRPRPWWRPRP,-0.108
3,RRIRNRPPRLPRPRPRPYTHPRP,-1.12
4,RRIRCRPPRLPRPRPRPCYQPRP,-0.182
5,RRIRFRPPRLPRPRPRPEWRPRP,0.531
6,RRIRARPPRLPRPRPRPKKAPRP,0.285
7,RRIRKRPPRLPRPRPRPWGVPRP,0.291
8,RRIRIRPPRLPRPRPRPMDVPRP,-0.361
9,RRIRRRPPRLPRPRPRPDKIPRP,0.402
10,RRIRFRPPRLPRPRPRPHGQPRP,-0.0526
11,RRIRPRPPRLPRPRPRPFCWPRP,0.447
12,RRIRLRPPRLPRPRPRPSGWPRP,0.0673
13,RRIRKRPPRLPRPRPRPEYPPRP,0.0134
14,RRIRQRPPRLPRPRPRPSLVPRP,-0.0806
15,RRIRWRPPRLPRPRPRPPDWPRP,1.19
16,RRIRMRPPRLPRPRPRPVVAPRP,0.533
17,RRIRHRPPRLPRPRPRPMMPPRP,-0.365
18,RRIRFRPPRLPRPRPRPFQAPRP,-0.91
19,RRIRWRPPRLPRPRPRPFKVPRP,0.00438
20,RRIRNRPPRLPRPRPRPHTDPRP,-0.373
21,RRIRMRPPRLPRPRPRPMSQPRP,0.0528
22,RRIRYRPPRLPRPRPRPRQRPRP,0.194
23,RRIRYRPPRLPRPRPRPYFSPRP,-1.16
24,RRIRHRPPRLPRPRPRPHHIPRP,-1.53
25,RRIRQRPPRLPRPRPRPYTCPRP,0.0526

row,Sequence,shrunken log2 fold change
1,RRIRMRPPRLPRPRPRPSGMPRP,0.03
2,RRIRNRPPRLPRPRPRPQWSPRP,0.129
3,RRIRIRPPRLPRPRPRPNIRPRP,-1.14
4,RRIRVRPPRLPRPRPRPPLWPRP,0.646
5,RRIRGRPPRLPRPRPRPHDIPRP,0.0295
6,RRIRHRPPRLPRPRPRPNCFPRP,0.0486
7,RRIRARPPRLPRPRPRPSRQPRP,0.373
8,RRIRCRPPRLPRPRPRPIFRPRP,-0.013
9,RRIRFRPPRLPRPRPRPCCHPRP,-0.415
10,RRIRIRPPRLPRPRPRPANRPRP,-0.159
11,RRIRQRPPRLPRPRPRPYKPPRP,0.0291
12,RRIRTRPPRLPRPRPRPLFYPRP,-0.467
13,RRIRGRPPRLPRPRPRPPLQPRP,0.641
14,RRIRCRPPRLPRPRPRPWHIPRP,-0.421
15,RRIRCRPPRLPRPRPRPLMCPRP,-0.306
16,RRIRCRPPRLPRPRPRPKTNPRP,0.00906
17,RRIRARPPRLPRPRPRPGQEPRP,0.0636
18,RRIRQRPPRLPRPRPRPGTDPRP,-0.0507
19,RRIRDRPPRLPRPRPRPANYPRP,-0.148
20,RRIRKRPPRLPRPRPRPNQHPRP,0.0449
21,RRIRCRPPRLPRPRPRPPNPPRP,0.761
22,RRIRIRPPRLPRPRPRPMGEPRP,-0.0442
23,RRIRQRPPRLPRPRPRPVAFPRP,-0.0706
24,RRIRNRPPRLPRPRPRPHLHPRP,-0.121
25,RRIRYRPPRLPRPRPRPCCEPRP,-0.567

row,Sequence,shrunken log2 fold change
1,RRIRVRPPRLPRPRPRPMATPRP,-0.182
2,RRIRQRPPRLPRPRPRPGKWPRP,0.362
3,RRIRMRPPRLPRPRPRPTTQPRP,0.081
4,RRIRHRPPRLPRPRPRPINPPRP,-0.0815
5,RRIRFRPPRLPRPRPRPQKHPRP,-0.327
6,RRIRRRPPRLPRPRPRPHYQPRP,-0.319
7,RRIRKRPPRLPRPRPRPFCWPRP,0.48
8,RRIRARPPRLPRPRPRPGTLPRP,0.22
9,RRIRVRPPRLPRPRPRPDLCPRP,0.0475
10,RRIRERPPRLPRPRPRPNMFPRP,-0.615
11,RRIRLRPPRLPRPRPRPGCRPRP,0.157
12,RRIRPRPPRLPRPRPRPVVYPRP,-0.538
13,RRIRQRPPRLPRPRPRPRICPRP,-0.083
14,RRIRGRPPRLPRPRPRPLRLPRP,1.34
15,RRIRCRPPRLPRPRPRPRIIPRP,-0.443
16,RRIRNRPPRLPRPRPRPMPYPRP,0.0291
17,RRIRFRPPRLPRPRPRPFILPRP,-0.749
18,RRIRDRPPRLPRPRPRPHLTPRP,0.176
19,RRIRMRPPRLPRPRPRPNDLPRP,0.0853
20,RRIRERPPRLPRPRPRPLYYPRP,-0.694
21,RRIRWRPPRLPRPRPRPSHHPRP,-0.3
22,RRIRGRPPRLPRPRPRPNAPPRP,0.938
23,RRIRDRPPRLPRPRPRPVKSPRP,-0.00931
24,RRIRSRPPRLPRPRPRPTWVPRP,0.0759
25,RRIRIRPPRLPRPRPRPISCPRP,-0.0154

row,Sequence,shrunken log2 fold change
1,RRIRNRPPRLPRPRPRPMECPRP,-0.0276
2,RRIRQRPPRLPRPRPRPAEKPRP,-0.00963
3,RRIRGRPPRLPRPRPRPAAWPRP,0.936
4,RRIRRRPPRLPRPRPRPPCGPRP,0.324
5,RRIRHRPPRLPRPRPRPACGPRP,0.216
6,RRIRNRPPRLPRPRPRPENHPRP,-0.124
7,RRIRCRPPRLPRPRPRPSWVPRP,-0.273
8,RRIRDRPPRLPRPRPRPRNHPRP,-0.641
9,RRIRCRPPRLPRPRPRPLSKPRP,-0.103
10,RRIRNRPPRLPRPRPRPSPHPRP,-0.171
11,RRIRDRPPRLPRPRPRPWVPPRP,0.164
12,RRIRARPPRLPRPRPRPVTMPRP,0.102
13,RRIRRRPPRLPRPRPRPTDSPRP,0.485
14,RRIRSRPPRLPRPRPRPVFTPRP,0.00672
15,RRIRNRPPRLPRPRPRPLFFPRP,-0.217
16,RRIRKRPPRLPRPRPRPPGTPRP,0.794
17,RRIRIRPPRLPRPRPRPFVRPRP,-0.0158
18,RRIRKRPPRLPRPRPRPVHKPRP,0.288
19,RRIRHRPPRLPRPRPRPPGLPRP,0.0255
20,RRIRLRPPRLPRPRPRPEKGPRP,0.693
21,RRIRHRPPRLPRPRPRPKKKPRP,-0.0281
22,RRIRDRPPRLPRPRPRPNNAPRP,-0.204
23,RRIRIRPPRLPRPRPRPINSPRP,-0.619
24,RRIRMRPPRLPRPRPRPDIQPRP,0.118
25,RRIRSRPPRLPRPRPRPEVPPRP,0.0326
